Test results published in publication PMC9369017.

Biological target: SARS-CoV-2 spike protein on Ramos-S cells (SARS-CoV-2) (UniProt P0DTC2)
Experiment: flow cytometry on cells

Substance | median fluorescence intensity
trACE2-Fc-H429F (from UniProt Q9BYF1 19-615) (Fc fusion) | 16300
EflACE2-Fc-E430G (from UniProt Q9BYF1 19-740) (Fc fusion) | 21000
EflACE2-Fc-H429Y (from UniProt Q9BYF1 19-740) (Fc fusion) | 15100
flACE2-Fc-E430G (from UniProt Q9BYF1 19-740) (Fc fusion) | 17300
flACE2-Fc-H429F (from UniProt Q9BYF1 19-740) (Fc fusion) | 16900
EflACE2-Fc-H429F (from UniProt Q9BYF1 19-740) (Fc fusion) | 20500
flACE2-Fc-H429Y (from UniProt Q9BYF1 19-740) (Fc fusion) | 12500
trACE2-Fc-E430G (from UniProt Q9BYF1 19-615) (Fc fusion) | 16700
trACE2-Fc-H429Y (from UniProt Q9BYF1 19-615) (Fc fusion) | 11600
